Laboratory results from US20230107856A1 (SHANGHAI JUNSHI BIOSCIENCES, published 2023).
Where “and” joins values, the source holds several entries; their conditions need not be identical. Equal entries are not always repeated.

Biological target: T1, PD-1 (as used in the competitive ELISA) (UniProt Q15116 25-167, limits assumed)
T1 construct: PD-1 is inferred as the target from the next sentence on PD-1 receptor occupancy
Assay: competitive ELISA; competing ligand not named

B1: toripalimab (antibody, human IgG4 S228P, kappa, V domains shown)
VH: QGQLVQSGAEVKKPGASVKVSCKASGYTFTDYEMHWVRQAPIHGLEWIGVIESETGGTAYNQKFKGRVTITADKSTSTAYMELSSLRSEDTAVYYCAREGITTVATTYYWYFDVWGQGTTVTVSS
VL: DVVMTQSPLSLPVTLGQPASISCRSSQSIVHSNGNTYLEWYLQKPGQSPQLLIYKVSNRFSGVPDRFSGSGSGTDFTLKISRVEAEDVGVYYCFQGSHVPLTFGQGTKLEIKR
notes: Humanized IgG4 mAb; also called JS001; anti-PD-1 antibody toripalimab
Question: For B1, which IC50 is on record?
Answer: Its IC50 is 3 nM and ~0.5 µg/mL.
